Experimental data reported in US20260151429A1 (NANJING LEGEND BIOTECH, published 2026).
Blank lines part the entries; values can stand above or below the molecule they belong to.

What was measured:
[1] = biological target: IL13RA2 on tumor cell lines (U251MG.Luc, U87MG.Luc, U87MG.Luc clone2, U138MG.Luc, A375.Luc) (UniProt Q14627); assay: cell-based or functional assay
[2] = biological target: T1, recombinant human IL13RA2 (human, UniProt Q14627 27-343); assay: phage ELISA on plates coated with recombinant human IL13RA2, anti-M13-HRP, A450
T1 construct: Coating antigen of the phage ELISA screen; The immunogen was ACRO Cat. No. IL2-H52H5; also called antigen proteins
T1 sequence (looked up): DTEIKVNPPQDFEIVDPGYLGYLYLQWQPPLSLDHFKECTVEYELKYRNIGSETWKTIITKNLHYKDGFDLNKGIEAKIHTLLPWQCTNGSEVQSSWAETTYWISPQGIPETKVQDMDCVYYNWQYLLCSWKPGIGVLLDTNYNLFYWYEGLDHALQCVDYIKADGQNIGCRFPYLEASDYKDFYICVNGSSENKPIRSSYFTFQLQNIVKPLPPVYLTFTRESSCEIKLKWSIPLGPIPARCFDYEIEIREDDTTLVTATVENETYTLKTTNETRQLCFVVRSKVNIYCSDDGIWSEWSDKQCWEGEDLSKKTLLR
Method: Individual output phage clones were grown in 96-deep-well plates and rescued by M13KO7 helper phage overnight. To identify clones that bound to antigen proteins, 96-well ELISA microtiter plates were coated with recombinant human IL13RA2 in coating buffer overnight at 4° C., and the plates were then blocked with blocking buffer. After blocking, approximately 50 µL per well of phage supernatant from overnight cell culture was added to the plates for 1.5-hour incubation at 4° C. The plates were washed four times, and the HRP-conjugated anti-M13 monoclonal antibody was added to the plates for 45-minute incubation at 4° C. The plates were again washed five times and substrate solution was added to the wells for color developing. Absorbance at 450 nm was measured for each well.

[3] = biological target: T2, Recombinant IL13RA2-His protein (Sino Biological, Cat #10350-H08H) (human, UniProt Q14627 27-343); assay: SPR, Biacore 2000; VHH-mIgG1Fc coupled to CM5 chip, IL13RA2-His injected; 1:1 Langmuir fit
T2 construct: Bought protein; also called human IL13RA2 his-tag protein; IL13AR2; not shown: His tag
T2 sequence (looked up): T1 sequence (looked up)
Method: The affinity of each VHH-mIgG1Fc for IL13AR2 was determined by SPR using a BIACORE® 2000 analytical system (GE Healthcare). Briefly, each VHH-mIgG1Fc protein was covalently coupled to a CM5(s) sensor chip using 4 μg/ml VHH-mIgG1Fc. Recombinant IL13RA2-His protein (Sino Biological, Cat #10350-H08H) was serially diluted in running buffer (10 mM HEPES, 150 mM NaCl, 3 mM EDTA, 0.05% Tween-20, pH 7.4) and injected at a flowrate of 10 μl/min followed by dissociation. The association and dissociation rate constants were determined using the BIACORE® 2000 evaluation software version 3.0 (Langmuir binding, local fit, 1:1 binding model).

IFNγ release level, CAR-T co-cultured with U87MG.Luc (UnT 80) [1]: 580 pg/mL | IFNγ release level, CAR-T co-cultured with U138MG.Luc (UnT 70) [1]: 252 pg/mL | IFNγ release level, CAR-T co-cultured with U251MG.Luc (UnT 196) [1]: 4360 pg/mL
Molecule: IL13-E13Y CAR (from UniProt P35225 35-146)

binding result [2]: binds
B5: VHH1343 (VHH)
VHH: QVKLEESGGGSVQAGGSLKLSCAASGYNFSKCGMGWFRRALREERELVAEISNDGTTTYDDSVKGRFTISRDNVKNTVYLQMNNLKTEDTAVYYCASRNPCGLLWGQGTQVTVSS

binding result [2]: binds
B6: VHH1366 (VHH)
VHH: QVKLEESGGGSVEAGGSLKLSCAGFGDMFSSCGMGWYRQAPGKEREMVSRISPRGTSITIDSVRGRFTISRDNAKNTLALEMNSLKIEDTAVYYCAAGGDSASRTPRCRSLNWGQGTQVTVSS

binding result [2]: binds
B9: VHH1339 (VHH)
VHH: EVQLVESGGGSVQAGGSLKLSCAASGDIFSMCGMGWYRQAPGKQREMVSRISPRGTAIYPDSLKGRFTVSRDNAKNTLYLQMNSLNTEDTAVYYCAAGGDSASRTPHCRSLNWGQGTQVTVSS

More lines, now with the values behind:

B1: VHH1354 (VHH)
VHH: AVQLVDSGGGLVQPGGSLRLSCAASGFTFSTYGMSWVRQPPGKGLEWVSGISPGGDHTTYADSVKGRFTISRDNAKNTLYLQLSSLKTEDTAMYYCTTVPGRSRYGNYNPRGQGTQVTVSS
binding result [2]: binds

B2: VHH1345-mIgG1Fc (Fc fusion)
chain: AVQLVDSGGGSAQVGGSLKLSCTASGYIFSSCGMGWYRQAPGKKREFVTSVSKYGTTTYPDSVKGRFTISLDNAKNTAYLQMNSLKIEDTAVYYCTTLASRGTTCPASVYSGPGTQVTVSSVPRDCGCKPCICTVPEVSSVFIFPPKPKDVLTITLTPKVTCVVVDISKDDPEVQFSWFVDDVEVHTAQTQPREEQFNSTFRSVSELPIMHQDWLNGKEFKCRVNSAAFPAPIEKTISKTKGRPKAPQVYTIPPPKEQMAKDKVSLTCMITDFFPEDITVEWQWNGQPAENYKNTQPIMNTNGSYFVYSKLNVQKSNWEAGNTFTCSVLHEGLHNHHTEKSLSHSPGK
notes: also called VHH-mIgG1Fc chimeric antibody; single VHH chimeric anti-IL13RA2 antibody
Kd [3]: 14 nM | koff [3]: 0.00045 s⁻¹ | kon [3]: 33000 M⁻¹ s⁻¹

B3: VHH1353 (VHH)
VHH: EVQLVESGGGSVQAGGSLRLSCAASGYTSSTNCMGWFRQAPGKEREGVASIRGTGGSTYYADSVKGRFTISRDDGKNTLYLQMNSLKPEDTAMYYCAAATGTSFSEARCVTAPPYKYPYWGQGTQVTVSS
binding result [2]: binds

B4: VHH2110 (VHH)
VHH: QVKLEESGGGSVQAGGSLRLSCAASGIPTRTLFMGWFRQAPGKEREEVARISDNGNTGYADFVKGRFTISKDNSKNTLYLQMSSLKPDDTAMYYCSARRASYSATVLWGQGTQVTVSS
binding result [2]: binds

B7: VHH1330-mIgG1Fc (Fc fusion)
chain: QVQLVESGGGLVQPGGSLTLSCAASGYRISLYKMGWFRQDPGKQREGVAAVDRNGRTIYADSVKGRFTIYQDNAKNTLDLQMNSLKPEDTAMYYCAADLWRIGSPASLSPTDYGDWGQGTQVTVSSVPRDCGCKPCICTVPEVSSVFIFPPKPKDVLTITLTPKVTCVVVDISKDDPEVQFSWFVDDVEVHTAQTQPREEQFNSTFRSVSELPIMHQDWLNGKEFKCRVNSAAFPAPIEKTISKTKGRPKAPQVYTIPPPKEQMAKDKVSLTCMITDFFPEDITVEWQWNGQPAENYKNTQPIMNTNGSYFVYSKLNVQKSNWEAGNTFTCSVLHEGLHNHHTEKSLSHSPGK
notes: as for B2
Kd [3]: 60 nM | koff [3]: 0.0022 s⁻¹ | kon [3]: 37000 M⁻¹ s⁻¹

B8: VHH1330-(GGGGS)2-VHH1345-mIgG1Fc (Fc fusion)
chain: QVQLVESGGGLVQPGGSLTLSCAASGYRISLYKMGWFRQDPGKQREGVAAVDRNGRTIYADSVKGRFTIYQDNAKNTLDLQMNSLKPEDTAMYYCAADLWRIGSPASLSPTDYGDWGQGTQVTVSSGGGGSGGGGSAVQLVDSGGGSAQVGGSLKLSCTASGYIFSSCGMGWYRQAPGKKREFVTSVSKYGTTTYPDSVKGRFTISLDNAKNTAYLQMNSLKIEDTAVYYCTTLASRGTTCPASVYSGPGTQVTVSSVPRDCGCKPCICTVPEVSSVFIFPPKPKDVLTITLTPKVTCVVVDISKDDPEVQFSWFVDDVEVHTAQTQPREEQFNSTFRSVSELPIMHQDWLNGKEFKCRVNSAAFPAPIEKTISKTKGRPKAPQVYTIPPPKEQMAKDKVSLTCMITDFFPEDITVEWQWNGQPAENYKNTQPIMNTNGSYFVYSKLNVQKSNWEAGNTFTCSVLHEGLHNHHTEKSLSHSPGK
notes: Two VHH domains joined by (GGGGS)2 and fused to mouse IgG1 Fc; also called bi-VHH-mIgG1Fc; bi-VHH chimeric anti-IL13RA2 antibody
Kd [3]: 0.71 nM | koff [3]: 5.4e-05 s⁻¹ | kon [3]: 75000 M⁻¹ s⁻¹
